Experiment [1] has as its target T1, full length human B7H3 expressed on CHOK1 cells (human, UniProt Q5ZPR3 29-534).
T1 construct: whole, on cells; also called B7H3/CHOK1; B7H3/CHOK1 full length; not shown: C-terminal flag and Myc tags from the pCMV6-Entry vector
T1 sequence (looked up): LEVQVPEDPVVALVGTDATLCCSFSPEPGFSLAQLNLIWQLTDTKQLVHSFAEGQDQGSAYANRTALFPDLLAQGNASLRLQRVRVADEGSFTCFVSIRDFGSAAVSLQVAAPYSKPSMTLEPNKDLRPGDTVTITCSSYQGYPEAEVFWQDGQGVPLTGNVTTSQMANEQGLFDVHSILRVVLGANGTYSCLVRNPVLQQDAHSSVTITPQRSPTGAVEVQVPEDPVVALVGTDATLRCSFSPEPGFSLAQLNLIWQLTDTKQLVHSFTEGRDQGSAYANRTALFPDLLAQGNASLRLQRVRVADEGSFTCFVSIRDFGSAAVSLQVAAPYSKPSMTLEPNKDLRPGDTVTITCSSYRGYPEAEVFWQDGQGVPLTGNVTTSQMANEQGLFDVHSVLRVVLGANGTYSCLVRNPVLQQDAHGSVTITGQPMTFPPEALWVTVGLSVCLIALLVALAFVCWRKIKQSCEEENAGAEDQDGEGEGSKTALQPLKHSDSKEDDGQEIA
Put plainly: FACS, VH titrated with or without 20 nM Enoblituzumab as competitor. (In general: Flow cytometry measures light scatter and fluorescence of single cells or particles in a stream.)

Experiment [2] has as its target T2, human B7H3-Fc recombinant protein (human, UniProt Q5ZPR3 29-466, limits assumed).
T2 construct: Recombinant Fc fusion; also called human B7H3-Fc (full length); B7H3 recombinant protein; not shown: Fc part
T2 sequence (looked up): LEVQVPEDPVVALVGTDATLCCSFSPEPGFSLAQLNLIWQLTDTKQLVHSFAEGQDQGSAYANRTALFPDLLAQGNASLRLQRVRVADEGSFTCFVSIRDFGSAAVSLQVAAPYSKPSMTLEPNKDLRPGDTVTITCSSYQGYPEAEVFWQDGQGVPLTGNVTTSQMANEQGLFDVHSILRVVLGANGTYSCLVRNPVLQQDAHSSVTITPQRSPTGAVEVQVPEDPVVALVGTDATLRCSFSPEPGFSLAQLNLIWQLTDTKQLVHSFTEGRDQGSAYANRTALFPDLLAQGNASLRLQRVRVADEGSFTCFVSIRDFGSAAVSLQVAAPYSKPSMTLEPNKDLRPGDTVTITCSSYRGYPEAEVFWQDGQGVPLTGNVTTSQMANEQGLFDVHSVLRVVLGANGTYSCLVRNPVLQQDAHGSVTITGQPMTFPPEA
Put plainly: ELISA, human B7H3-Fc coated at 2 ug/mL, anti-Flag HRP detection; footnote of Table 5: NA: low binding to B7H3 protein.

B1: BH-03 anti-B7H3 VH antibody (VHH)
VH: QVQLVESGGGVVQPGRSPRLSCAASGFTFSSYAMHWVRQAPGKGLEWVAVISYDGSNKYYADSVKGRFTISRDNSKNTLYLQMNSLRAEDTAVYYCARDLARLVAGLDYWGQGTLVTVSS
notes: Human heavy chain-only (VH) antibody made in E. coli with a C-terminal flag and 6xHis tag; not shown: C-terminal flag and 6xHis tag
B1: the binding result in experiment [1] and in experiment [2] was “binds” throughout.

B2: BH-01 anti-B7H3 VH antibody (VHH)
VHH: QVTLKESGPTVVNPTQTLTLTCTFSGFSLTTSPVGVGWLRQPPGQALEWLALIYWDDDKRYSPSLKSRLTITKNTSRNQVVLTMMNMDPVDTATYYCAHRVYYTGNWDGGSFDYWGQGTLVTVSS
notes: Human heavy chain-only (VH) antibody made in E. coli with a C-terminal flag and 6xHis tag; also called BH-1; not shown: C-terminal flag and 6xHis tag
In the case of B2, the binding result in experiment [1] is reported as “binds”.

The values above are taken from patent EP4705353A2 (dated 2026).
